From patent US20100256070A1

Molecular target: Diphtheria toxin anti-CD5 ScFv fusion protein bearing a granzyme B cleavage sequence

B1: mouse granzyme B (protein)
chain: IIGGHEVKPHSRPYMALLSIKDQQPEAICGGFLIREDFVLTAAHCEGSIINVTLGAHNIKEQEKTQQVIPMVKCIPHPDYNPKTFSNDIMLLKLKSKAKRTRAVRPLNLPRRNVNVKPGDVCYVAGWGRMAPMGKYSNTLQEVELTVQKDRECESYFKNRYNKTNQICAGDPKTKRASFRGDSGGPLVCKKVAAGIVSYGYKDGSPPRAFTKVSSFLSWIKKTMKSS
With B1 the “in vitro cleavage by granzyme B (gel)” value was “only a small fraction of DT and PEA fusion proteins was cleaved”.
